Test results: the supplement of paper PMC7125110
± gives the standard error. Variants at the floor of the assay were thinned out.

B1: glmS ribozyme (parent)
chain: AUAAAAGCGCCAGAACUACAGAAAUGUAGUUGACGAGGAGGAGGUUUAUCGAAUUUUCGGCGGAUGCCUCCAAA

How the values were obtained:
Conditions in all cases: with glucosamine-6-phosphate
glucosamine-6-phosphate [1] = variants of: B1; assay: self-cleavage kobs at 40 uM GlcN6P; higher = faster cleavage; RNA array
Procedure, shortened: (§1)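 Weighted Michaelis–Menten fits across concentrations supplied kcat and KM, based on kobs from one- or two-exponential decay fits to normalised per-tile medians. The data came from barcoded ribozyme variants transcribed in situ by E. coli RNA polymerase on sequenced MiSeq chips and tracked at 37 °C by a hybridised Cy3 probe. Glucosamine-6-phosphate (40 μM to 10 mM) in HEPES/KCl/Mg(OAc)2 buffer was flowed in.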

glucosamine-6-phosphate [2] = variants of: B1; assay: self-cleavage kobs at 640 uM GlcN6P; higher = faster cleavage; RNA array
Procedure, shortened: as §1

glucosamine-6-phosphate [3] = variants of: B1; assay: self-cleavage kobs at 10000 uM GlcN6P; higher = faster cleavage; RNA array
Procedure, shortened: as §1

glucosamine-6-phosphate [4] = variants of: B1; assay: self-cleavage kobs at 2500 uM GlcN6P; higher = faster cleavage; RNA array
Procedure, shortened: as §1

glucosamine-6-phosphate [5] = variants of: B1; assay: self-cleavage kobs at 160 uM GlcN6P; higher = faster cleavage; RNA array
Procedure, shortened: as §1

Row | Variant | self-cleavage kobs at 40 uM GlcN6P (glucosamine-6-phosphate [1]) [s⁻¹] | self-cleavage kobs at 640 uM GlcN6P (glucosamine-6-phosphate [2]) [s⁻¹] | self-cleavage kobs at 10000 uM GlcN6P (glucosamine-6-phosphate [3]) [s⁻¹] | self-cleavage kobs at 2500 uM GlcN6P (glucosamine-6-phosphate [4]) [s⁻¹] | self-cleavage kobs at 160 uM GlcN6P (glucosamine-6-phosphate [5]) [s⁻¹]
1 | G37C U45C G59U C68G | < 1e-05 | < 1e-05 | < 1e-05 | – | –
2 | A36U A39G G51A A53U | < 1e-05 | < 1e-05 | < 1e-05 | < 1e-05 | –
3 | G35C U65A | < 1e-05 | < 1e-05 | < 1e-05 | – | –
4 | G37U C68A | < 1e-05 | – | < 1e-05 | – | –
5 | G35C A64G C67U | < 1e-05 | – | < 1e-05 | – | –
6 | G35U A64C | < 1e-05 | < 1e-05 | < 1e-05 | < 1e-05 | < 1e-05
7 | G35C A48G | < 1e-05 | – | – | < 1e-05 | < 1e-05
8 | G35C C61U G62A | < 1e-05 | – | < 1e-05 | – | –
9 | G38A G41U U46C | < 1e-05 | – | < 1e-05 | – | –
10 | G37U A39G A42U C70U | < 1e-05 | – | – | – | –
11 | G35C U46G C70G | < 1e-05 | < 1e-05 | < 1e-05 | < 1e-05 | –
12 | A36U C50G | 6.51e-05 ± 1.4e-05 | 2.94e-05 ± 1.3e-05 | – | 0.000455 ± 0.00018 | 8.01e-05 ± 1.4e-05
13 | G38A A42C | < 1e-05 | – | < 1e-05 | – | –
14 | A36U U69G C71U | 0.000104 ± 4.8e-05 | – | – | – | –
15 | G35U A42U | < 1e-05 | < 1e-05 | – | < 1e-05 | < 1e-05
16 | G35A G51C | < 1e-05 | < 1e-05 | – | < 1e-05 | –
17 | G35U U47A U57C | < 1e-05 | – | – | – | –
18 | A36G G41A G51C C61G C67U | < 1e-05 | – | < 1e-05 | – | –
19 | C34U U55G | < 1e-05 | < 1e-05 | – | – | < 1e-05
20 | G38C U69C | < 1e-05 | – | < 1e-05 | – | < 1e-05
21 | G38A A52G | < 1e-05 | < 1e-05 | < 1e-05 | < 1e-05 | –
22 | G35A G40C A48G G62U G63C | < 1e-05 | – | – | – | –
23 | G37A A48G | < 1e-05 | – | – | – | < 1e-05

Row | Variant | self-cleavage kobs at 40 uM GlcN6P (glucosamine-6-phosphate [1]) [s⁻¹] | self-cleavage kobs at 640 uM GlcN6P (glucosamine-6-phosphate [2]) [s⁻¹] | self-cleavage kobs at 10000 uM GlcN6P (glucosamine-6-phosphate [3]) [s⁻¹] | self-cleavage kobs at 2500 uM GlcN6P (glucosamine-6-phosphate [4]) [s⁻¹] | self-cleavage kobs at 160 uM GlcN6P (glucosamine-6-phosphate [5]) [s⁻¹]
24 | G38C U49G A52C | < 1e-05 | – | – | < 1e-05 | –
25 | G38C U56G | < 1e-05 | < 1e-05 | – | < 1e-05 | < 1e-05
26 | G37U G63A | < 1e-05 | < 1e-05 | < 1e-05 | < 1e-05 | < 1e-05
27 | G35U G41U U45C | < 1e-05 | – | < 1e-05 | – | –
28 | A36G C71A | < 1e-05 | < 1e-05 | – | < 1e-05 | < 1e-05
29 | G37A G38A G41A | < 1e-05 | – | < 1e-05 | – | –
30 | G35U G44C U56C | < 1e-05 | – | – | – | –
31 | G35U A48C G60C | < 1e-05 | – | < 1e-05 | < 1e-05 | –
32 | G37U G43C U65C | < 1e-05 | < 1e-05 | < 1e-05 | – | –
33 | A36U G43A U56A | < 1e-05 | < 1e-05 | < 1e-05 | – | –
34 | C34U G63U | < 1e-05 | < 1e-05 | – | < 1e-05 | < 1e-05
35 | G37C U56C | < 1e-05 | – | < 1e-05 | – | –
36 | C34U G62C | < 1e-05 | < 1e-05 | < 1e-05 | < 1e-05 | < 1e-05
37 | A36G U47C | < 1e-05 | – | < 1e-05 | – | –
38 | C34U G59C C71G | < 1e-05 | – | < 1e-05 | – | –
39 | G35C C50U | < 1e-05 | < 1e-05 | < 1e-05 | < 1e-05 | < 1e-05
40 | G38C G43C | < 1e-05 | – | – | – | –
41 | G37A G44U U65G | < 1e-05 | < 1e-05 | < 1e-05 | – | < 1e-05
42 | G35A A42G A52G C70U | < 1e-05 | – | – | < 1e-05 | < 1e-05
43 | G38A U47A C71G | < 1e-05 | – | < 1e-05 | – | –
44 | G37U G41U U56A G62A G63U | < 1e-05 | – | – | – | –
45 | A36G C61A G62U C67A | < 1e-05 | – | – | – | –
46 | A36U U47C | < 1e-05 | < 1e-05 | < 1e-05 | – | < 1e-05

Row | Variant | self-cleavage kobs at 40 uM GlcN6P (glucosamine-6-phosphate [1]) [s⁻¹] | self-cleavage kobs at 640 uM GlcN6P (glucosamine-6-phosphate [2]) [s⁻¹] | self-cleavage kobs at 10000 uM GlcN6P (glucosamine-6-phosphate [3]) [s⁻¹] | self-cleavage kobs at 2500 uM GlcN6P (glucosamine-6-phosphate [4]) [s⁻¹] | self-cleavage kobs at 160 uM GlcN6P (glucosamine-6-phosphate [5]) [s⁻¹]
47 | A36G C58U | < 1e-05 | < 1e-05 | < 1e-05 | < 1e-05 | –
48 | A36G C58A | < 1e-05 | – | < 1e-05 | < 1e-05 | –
49 | C34U C68G | 0.000563 ± 0.00025 | 0.00228 ± 0.0011 | 0.000463 ± 0.00015 | – | –
50 | G37U G62A | < 1e-05 | – | – | – | < 1e-05
51 | G37U A39G G62A C68A | < 1e-05 | – | < 1e-05 | – | –
52 | A36G G51A | < 1e-05 | < 1e-05 | – | – | < 1e-05
53 | G38A U57A U65C | < 1e-05 | – | – | – | –
54 | G38A U46G A52U | < 1e-05 | – | – | – | –
55 | G35A A52G | < 1e-05 | – | < 1e-05 | < 1e-05 | –
56 | A36G U56C | < 1e-05 | < 1e-05 | – | < 1e-05 | < 1e-05
57 | G37U U47A C68G | < 1e-05 | – | < 1e-05 | 9e-05 ± 3.5e-05 | –
58 | A36G C50U U57A | < 1e-05 | – | < 1e-05 | – | –
59 | G38U G40C G60A | < 1e-05 | – | – | – | –
60 | G35U | < 1e-05 | < 1e-05 | < 1e-05 | < 1e-05 | < 1e-05
61 | G37C U46G | < 1e-05 | < 1e-05 | – | – | < 1e-05
62 | A36C G41A G43A | < 1e-05 | – | – | – | –
63 | G37U G66A | < 1e-05 | < 1e-05 | – | – | –
64 | G38A C50G C68U | 7.89e-05 ± 2.3e-05 | 8.33e-05 ± 3.1e-05 | 4.82e-05 ± 1.5e-05 | 0.000109 ± 2.4e-05 | –
65 | C34U U49A C58A U69A | 0.000146 ± 5e-05 | 0.000567 ± 0.00014 | 4.63e-05 ± 2e-05 | – | –
66 | A36C C58G U69G | 7.56e-05 ± 2.1e-05 | – | 5.12e-05 ± 1.9e-05 | – | –
67 | G35U G37U G63U U65C | < 1e-05 | – | – | – | –
68 | G35U U45G | < 1e-05 | < 1e-05 | < 1e-05 | < 1e-05 | < 1e-05
69 | A36G G43A U54G | < 1e-05 | < 1e-05 | < 1e-05 | < 1e-05 | –

Row | Variant | self-cleavage kobs at 40 uM GlcN6P (glucosamine-6-phosphate [1]) [s⁻¹] | self-cleavage kobs at 640 uM GlcN6P (glucosamine-6-phosphate [2]) [s⁻¹] | self-cleavage kobs at 10000 uM GlcN6P (glucosamine-6-phosphate [3]) [s⁻¹] | self-cleavage kobs at 2500 uM GlcN6P (glucosamine-6-phosphate [4]) [s⁻¹] | self-cleavage kobs at 160 uM GlcN6P (glucosamine-6-phosphate [5]) [s⁻¹]
70 | G37U G40U | < 1e-05 | < 1e-05 | < 1e-05 | < 1e-05 | < 1e-05
71 | G37U G40C | < 1e-05 | < 1e-05 | < 1e-05 | < 1e-05 | < 1e-05
72 | G38A U56C | < 1e-05 | < 1e-05 | < 1e-05 | – | < 1e-05
73 | G38C A39U A42G U54A C67G C70U | < 1e-05 | – | – | – | –
74 | C34U G38C | < 1e-05 | < 1e-05 | < 1e-05 | – | < 1e-05
75 | G35A U54A | < 1e-05 | < 1e-05 | – | < 1e-05 | –
76 | A36G G44C A64C C67U | < 1e-05 | – | – | – | –
77 | G38U G41A U69G | < 1e-05 | < 1e-05 | – | < 1e-05 | < 1e-05
78 | A36C G59A C67A | < 1e-05 | – | < 1e-05 | – | –
79 | G37A G59U C61U | < 1e-05 | – | < 1e-05 | – | –
80 | A36C U45G | < 1e-05 | < 1e-05 | < 1e-05 | < 1e-05 | < 1e-05
81 | A36C U45A | < 1e-05 | – | < 1e-05 | – | < 1e-05
82 | G35C C68A | < 1e-05 | < 1e-05 | < 1e-05 | < 1e-05 | < 1e-05
83 | A36C G40U C67U | < 1e-05 | < 1e-05 | < 1e-05 | – | < 1e-05
84 | G37U U54G A64U | < 1e-05 | – | < 1e-05 | – | –
85 | G37U U46C | < 1e-05 | – | < 1e-05 | – | –
86 | G37U G40U U46G U54C | < 1e-05 | < 1e-05 | < 1e-05 | < 1e-05 | < 1e-05
87 | G35C U45G | < 1e-05 | – | < 1e-05 | < 1e-05 | < 1e-05
88 | G35U G40A | < 1e-05 | < 1e-05 | < 1e-05 | – | < 1e-05
89 | G35U G40C | < 1e-05 | < 1e-05 | < 1e-05 | < 1e-05 | < 1e-05
90 | A36C G63U | < 1e-05 | < 1e-05 | – | – | –
91 | C34U U45C | < 1e-05 | – | < 1e-05 | < 1e-05 | < 1e-05
